# Laboratory results taken from PMC4271523, “Differential Effects of a Mutation on the Normal and Promiscuous Activities of Orthologs: Implications for Natural and Directed Evolution” (Molecular Biology and Evolution, 2014).
# B1: Allivibrio fischeri ProA (Aliivibrio fischeri ES114; E384A) (protein)
# chain: MNLTTMGQAAKAAAFDLAVAPTAQKNKALAIIADELEANKDAILAANEKDIKAAVEAGISEAMQDRLLLTEERLVGIANDVRNVINLNDPVGSEIDSKVLENGMSLSRRRVPIGVIGVIYEARPNVTIDIASLCLKTGNASILRGGKETFFSNMELVKVIQVALEKAGLPAASVQYIEKPDRELVSQLLTMDDYVDMIIPRGGAGLHKMCKENSSIPVIIGGFGISHAFVDESADLERALVVVDNSKAQRPSACNALDTLLVHEAVAPQFLALLANNMAGRVELVAEPKAYGLLKEFEGVSLREAQEGDFDTEWLSYTLGVKVVADVNEAAAHMQKHNASHSDTILTNNIESAEKFINTAGSAAVYVNASTRFTDGAQFGLGAAVAVSTQKLHARGPMGLEELTSYKWVGKADYLIRS
# notes: His-tagged, pTrcHisB, expressed in delta-argC delta-proA E. coli BW25113 (DE3)
# B2: Bacillus subtilis ProA (Bacillus subtilis subsp. subtilis str. 168) (protein)
# chain: MSEVSVKAKLAKEAAAEMIMKTTAEKDEALSLIANGLRKELDFLLAENAKDIVNGKENGLTPDIIDRLSLDEKRIRDIADAVELLIDLADPIGDSLETIEKENGLFIEKIRVPLGVVGMIYEARPNVTVDAATLCLKTGNAVVLRGSSSAIHSNKALVSVIYRALEQSALPIHAVQLIEDTSRETAKELFTLNDGLDVLIPRGGKKLIDLVVRESTVPVLETGAGNCHIFIDETAKPQMAEKVVVNAKTQRPSVCNAIESLLIHKAWARQHGKELLDQLENAGVEIRGDELVCELHPSSKQASKEDWETEFLAPVLSVKTVENVQEAVKHIQQYGTNHSEAILTENDKNAVYFQTAVDAAAVYHNASTRFTDGFEFGYGAEIGISTQKLHARGPMGLPALTSTKYIIKGTGQIRE
# notes: as for B1
# B3: Bacillus subtilis ProA (Bacillus subtilis subsp. subtilis str. 168; E381A) (protein)
# chain: MSEVSVKAKLAKEAAAEMIMKTTAEKDEALSLIANGLRKELDFLLAENAKDIVNGKENGLTPDIIDRLSLDEKRIRDIADAVELLIDLADPIGDSLETIEKENGLFIEKIRVPLGVVGMIYEARPNVTVDAATLCLKTGNAVVLRGSSSAIHSNKALVSVIYRALEQSALPIHAVQLIEDTSRETAKELFTLNDGLDVLIPRGGKKLIDLVVRESTVPVLETGAGNCHIFIDETAKPQMAEKVVVNAKTQRPSVCNAIESLLIHKAWARQHGKELLDQLENAGVEIRGDELVCELHPSSKQASKEDWETEFLAPVLSVKTVENVQEAVKHIQQYGTNHSEAILTENDKNAVYFQTAVDAAAVYHNASTRFTDGFEFGYGAAIGISTQKLHARGPMGLPALTSTKYIIKGTGQIRE
# notes: as for B1
# B4: E. coli ProA (GP reductase) (Escherichia coli K-12) (protein)
# chain: MLEQMGIAAKQASYKLAQLSSREKNRVLEKIADELEAQSEIILNANAQDVADARANGLSEAMLDRLALTPARLKGIADDVRQVCNLADPVGQVIDGGVLDSGLRLERRRVPLGVIGVIYEARPNVTVDVASLCLKTGNAVILRGGKETCRTNAATVAVIQDALKSCGLPAGAVQAIDNPDRALVSEMLRMDKYIDMLIPRGGAGLHKLCREQSTIPVITGGIGVCHIYVDESVEIAEALKVIVNAKTQRPSTCNTVETLLVNKNIADSFLPALSKQMAESGVTLHADAAALAQLQAGPAKVVAVKAEEYDDEFLSLDLNVKIVSDLDDAIAHIREHGTQHSDAILTRDMRNAQRFVNEVDSSAVYVNASTRFTDGGQFGLGAEVAVSTQKLHARGPMGLEALTTYKWIGIGDYTIRA
# notes: as for B1
# B5: Saccharophagus degradans ProA (Saccharophagus degradans 2-40) (protein)
# chain: MTVQDYMLTLGKQARAASRQMASADTGKKNAALLAIADAINSARDTIAAENARDMEAGRANGLDAALLDRLELTPERIDGMIEGLNQVAALPDPCGEITDLKYRPSGIQLGKKRTPLGVVGIIYESRPNVTVDAASLCLKSGNAAILRGGSEAIHSNKAVAVCIAAGLKAAGLPETAVQVVETTDRAAVGELITMTKYVDVVVPRGGKSLIERISADARVSVIKHLDGICHVYVDKTANLDKAFNIVINSKTHRYGVCNAMETMLVDEAIAADFLPRAAKEFAARGVELRGCEKTVALLTASDIPVVAALEEDWDTEYLAPILSIKLVANMDEAIEHINNHGSHHTDALVSENYTLARKFLTEVDSSSVMINASTRFADGFEYGLGAEIGISTDKIHARGPVGLEGLTSQKWIVFGDGHIRN
# notes: as for B1
# Tests used:
# Assay in all cases: purified protein
# purified protein [1] = substrate: CC(=O)N[C@@H](CCC=O)C(=O)O; format: biochemical, Aliivibrio fischeri; details: 1 mM NADP+, 100 mM potassium phosphate pH 7.6, room temperature, reverse (dehydrogenase) direction, promiscuous substrate, apparent KM, NAGSA in equilibrium with its hydrate
# purified protein [2] = substrate: N[C@@H](CCC=O)C(=O)O; format: biochemical, Bacillus subtilis; details: 1 mM NADP+, 100 mM potassium phosphate pH 7.6, room temperature, reverse (dehydrogenase) direction, apparent KM corrected to free GSA aldehyde/hydrate
# purified protein [3] = substrate: CC(=O)N[C@@H](CCC=O)C(=O)O; format: biochemical, Bacillus subtilis; details: 1 mM NADP+, 100 mM potassium phosphate pH 7.6, room temperature, reverse (dehydrogenase) direction, promiscuous substrate, apparent KM, NAGSA in equilibrium with its hydrate
# purified protein [4] = substrate: N[C@@H](CCC=O)C(=O)O; format: biochemical, Escherichia coli; details: 1 mM NADP+, 100 mM potassium phosphate pH 7.6, room temperature, reverse (dehydrogenase) direction, apparent KM corrected to free GSA aldehyde/hydrate
# purified protein [5] = substrate: CC(=O)N[C@@H](CCC=O)C(=O)O; format: biochemical, Escherichia coli; details: 1 mM NADP+, 100 mM potassium phosphate pH 7.6, room temperature, reverse (dehydrogenase) direction, promiscuous substrate, apparent KM, NAGSA in equilibrium with its hydrate
# purified protein [6] = substrate: N[C@@H](CCC=O)C(=O)O; format: biochemical, Saccharophagus degradans; details: 1 mM NADP+, 100 mM potassium phosphate pH 7.6, room temperature, reverse (dehydrogenase) direction, apparent KM corrected to free GSA aldehyde/hydrate
# purified protein [7] = substrate: CC(=O)N[C@@H](CCC=O)C(=O)O; format: biochemical, Saccharophagus degradans; details: 1 mM NADP+, 100 mM potassium phosphate pH 7.6, room temperature, reverse (dehydrogenase) direction, promiscuous substrate, apparent KM, NAGSA in equilibrium with its hydrate
protein,measurement,setting,value
B1,Km,purified protein [1],65 ± 23 µM
B2,Km,purified protein [2],150 ± 20 µM
same,kcat,purified protein [2],1.7 ± 0.2 s⁻¹
same,kcat/Km,purified protein [2],11000 ± 1000 M⁻¹ s⁻¹
same,Km,purified protein [3],6000 ± 1500 µM
same,kcat,purified protein [3],0.0014 ± 0.0003 s⁻¹
same,kcat/Km,purified protein [3],0.24 ± 0.015 M⁻¹ s⁻¹
B3,Km,purified protein [3],46 ± 19 µM
same,kcat,purified protein [3],0.0028 ± 0.0004 s⁻¹
same,kcat/Km,purified protein [3],61 ± 14 M⁻¹ s⁻¹
B4,Km,purified protein [4],43 ± 3 µM
same,kcat,purified protein [4],5.1 ± 0.2 s⁻¹
same,kcat/Km,purified protein [4],120000 ± 10000 M⁻¹ s⁻¹
same,Km,purified protein [5],480 ± 30 µM
B5,Km,purified protein [6],85 ± 13 µM
same,kcat,purified protein [6],0.4 ± 0.04 s⁻¹
same,kcat/Km,purified protein [6],4700 ± 400 M⁻¹ s⁻¹
same,Km,purified protein [7],820 ± 160 µM
same,kcat,purified protein [7],3e-05 ± 3e-06 s⁻¹
same,kcat/Km,purified protein [7],0.037 ± 0.004 M⁻¹ s⁻¹
